To fix the notation:
T1: Ax1 protein, extracellular domain (human, UniProt P30530 26-451)
T1 construct: extracellular domain; also called Axl; Ark
T1 sequence (looked up): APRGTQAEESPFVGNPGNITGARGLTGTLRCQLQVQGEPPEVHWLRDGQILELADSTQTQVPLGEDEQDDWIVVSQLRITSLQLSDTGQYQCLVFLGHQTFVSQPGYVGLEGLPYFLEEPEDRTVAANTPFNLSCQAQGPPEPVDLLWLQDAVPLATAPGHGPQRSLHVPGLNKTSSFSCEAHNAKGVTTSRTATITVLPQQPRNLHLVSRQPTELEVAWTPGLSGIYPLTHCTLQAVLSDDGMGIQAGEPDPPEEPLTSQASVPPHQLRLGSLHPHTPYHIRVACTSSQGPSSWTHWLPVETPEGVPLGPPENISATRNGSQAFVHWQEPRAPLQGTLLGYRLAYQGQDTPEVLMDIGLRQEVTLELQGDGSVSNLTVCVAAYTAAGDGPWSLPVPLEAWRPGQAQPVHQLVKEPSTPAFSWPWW

B1: HC-W110H (antibody, V domains shown)
VH: EVQLVQSGAEVKKPGATVKISCKVSGYSFTGHTMNWIRQPPGKGLEWIGLIKPSNGGTSYNQKFKGRVTISADKSISTAYLQWSSLKASDTAMYYCAHGHYESYFAMDYHGQGTLVTVSS
VL: DIQMTQSPSSLSASVGDRVTITCKASQDVSSAVAWYQQKPGQAPRLLIYWASTRHTGVPSRFSGSGSGTEFTLTISSLQPDDFATYYCQEHFSTPLTFGQGTKVEIK
B2: HC-W110L (antibody, V domains shown)
VH: B1 VH with H110L
VL: B1 VL
B3: HC-W110N (antibody, V domains shown)
VH: B1 VH with H110N
VL: B1 VL
B4: HC-W110T (antibody, V domains shown)
VH: B1 VH with H110T
VL: B1 VL
B5: HC-W110A (antibody, V domains shown)
VH: B1 VH with H110A
VL: B1 VL
B6: HC-W110P (antibody, V domains shown)
VH: B1 VH with H110P
VL: B1 VL
B7: HC-E102L (antibody, V domains shown)
VH: B1 VH with E102L, H110W
VL: B1 VL
notes: CPE single point mutant
B8: HC-W110R (antibody, V domains shown)
VH: B1 VH with H110R
VL: B1 VL
B9: HC-B102H (antibody, V domains shown)
VH: B1 VH with E102H, H110W
VL: B1 VL
notes: CPE single point mutant; printed B102, read as E102 (other rows print HC-E102x)
B10: HC-E102V (antibody, V domains shown)
VH: B1 VH with E102V, H110W
VL: B1 VL
notes: CPE single point mutant
B11: HC-A106L (antibody, V domains shown)
VH: B1 VH with A106L, H110W
VL: B1 VL
notes: CPE single point mutant
B12: HC-E102M (antibody, V domains shown)
VH: B1 VH with E102M, H110W
VL: B1 VL
notes: CPE single point mutant
B13: HC-B102I (antibody, V domains shown)
VH: B1 VH with E102I, H110W
VL: B1 VL
notes: as for B9
B14: HC-F105V (antibody, V domains shown)
VH: B1 VH with F105V, H110W
VL: B1 VL
notes: CPE single point mutant
B15: HC-E102Y (antibody, V domains shown)
VH: B1 VH with E102Y, H110W
VL: B1 VL
notes: CPE single point mutant
B16: HC-B102G (antibody, V domains shown)
VH: B1 VH with E102G, H110W
VL: B1 VL
notes: as for B9
B17: HC-H100P (antibody, V domains shown)
VH: B1 VH with H100P, H110W
VL: B1 VL
notes: CPE single point mutant
B18: HC-A106G (antibody, V domains shown)
VH: B1 VH with A106G, H110W
VL: B1 VL
notes: CPE single point mutant
B19: HC-N035I (antibody, V domains shown)
VH: B1 VH with N35I, H110W
VL: B1 VL
notes: CPE single point mutant
B20: HC-B102F (antibody, V domains shown)
VH: B1 VH with E102F, H110W
VL: B1 VL
notes: as for B9
B21: HC-F105N (antibody, V domains shown)
VH: B1 VH with F105N, H110W
VL: B1 VL
notes: CPE single point mutant
B22: HC-F105S (antibody, V domains shown)
VH: B1 VH with F105S, H110W
VL: B1 VL
notes: CPE single point mutant
B23: HC-M107E (antibody, V domains shown)
VH: B1 VH with M107E, H110W
VL: B1 VL
notes: CPE single point mutant
B24: HC-B102A (antibody, V domains shown)
VH: B1 VH with E102A, H110W
VL: B1 VL
notes: as for B9
B25: HC-M107F (antibody, V domains shown)
VH: B1 VH with M107F, H110W
VL: B1 VL
notes: CPE single point mutant
B26: HC-H100R (antibody, V domains shown)
VH: B1 VH with H100R, H110W
VL: B1 VL
notes: CPE single point mutant
B27: HC-A106D (antibody, V domains shown)
VH: B1 VH with A106D, H110W
VL: B1 VL
notes: CPE single point mutant
B28: HC-H100D (antibody, V domains shown)
VH: B1 VH with H100D, H110W
VL: B1 VL
notes: CPE single point mutant
B29: HC-B102D (antibody, V domains shown)
VH: B1 VH with E102D, H110W
VL: B1 VL
notes: as for B9
B30: HC-F105T (antibody, V domains shown)
VH: B1 VH with F105T, H110W
VL: B1 VL
notes: CPE single point mutant

The record followed here is patent US20240199746A1 (published 2024).

Numbering of substitutions follows the chain as printed. Names and notes keep the numbering of the source.

One assay has as its target T1, Ax1 protein, extracellular domain. Description: ELISA, mutant diluted 1:3. The source says: (§1) The DNA encoding the wild-type antibody was evolved to generate a mutant antibody library using Comprehensive Positional Evolution (CPE), which each position in the template antibody is randomized one at a time. Each mutant antibody in the library has only one single point mutation. The mutant antibodies in the library were generated by simultaneously screening for selective binding affinity to Ax1 at pH 6.0 over pH 7.4 by ELISA. Two mutant antibody dilutions were used: 1:3 and 1:9 dilutions.
Consider B1, for which the Affinity ELISA CPE mutant ratio (1:3, pH 6.0/7.4) was 7.99.

Consider B2, for which the Affinity ELISA CPE mutant ratio (1:3, pH 6.0/7.4) worked out at 8.22.

Turning to B3, the Affinity ELISA CPE mutant ratio (1:3, pH 6.0/7.4) is 4.3.

On to B4, for which the Affinity ELISA CPE mutant ratio (1:3, pH 6.0/7.4) was found to be 7.47.

Regarding B5, the Affinity ELISA CPE mutant ratio (1:3, pH 6.0/7.4) was determined as 7.31.

As for B6, the Affinity ELISA CPE mutant ratio (1:3, pH 6.0/7.4) was determined as 6.49.

Regarding B7, the “Affinity ELISA CPE mutant ratio (1:3, pH 6.0/7.4)” value was determined as 3.27.

Consider B8, for which the Affinity ELISA CPE mutant ratio (1:3, pH 6.0/7.4) came to 5.99.

Take B9: the “Affinity ELISA CPE mutant ratio (1:3, pH 6.0/7.4)” value came out at 2.08.

Take B10: the “Affinity ELISA CPE mutant ratio (1:3, pH 6.0/7.4)” value was determined as 1.93.

In the case of B11, the “Affinity ELISA CPE mutant ratio (1:3, pH 6.0/7.4)” value is 21.5.

Take B12: the “Affinity ELISA CPE mutant ratio (1:3, pH 6.0/7.4)” value was found to be 2.08.

Consider B13, for which the “Affinity ELISA CPE mutant ratio (1:3, pH 6.0/7.4)” value came out at 2.02.

For B14, the “Affinity ELISA CPE mutant ratio (1:3, pH 6.0/7.4)” value came out at 2.43.

Turning to B15, the “Affinity ELISA CPE mutant ratio (1:3, pH 6.0/7.4)” value stood at 2.61.

B16: the “Affinity ELISA CPE mutant ratio (1:3, pH 6.0/7.4)” value amounted to 1.8.

For the molecule B17, the “Affinity ELISA CPE mutant ratio (1:3, pH 6.0/7.4)” value came out at 2.58.

As for B18, the “Affinity ELISA CPE mutant ratio (1:3, pH 6.0/7.4)” value came out at 1.52.

B19: the “Affinity ELISA CPE mutant ratio (1:3, pH 6.0/7.4)” value came out at 2.81.

With B20, the “Affinity ELISA CPE mutant ratio (1:3, pH 6.0/7.4)” value was found to be 1.88.

Consider B21, for which the “Affinity ELISA CPE mutant ratio (1:3, pH 6.0/7.4)” value is 2.36.

Take B22: the “Affinity ELISA CPE mutant ratio (1:3, pH 6.0/7.4)” value came out at 3.9.

For B23, the “Affinity ELISA CPE mutant ratio (1:3, pH 6.0/7.4)” value is 2.16.

For the molecule B24, the “Affinity ELISA CPE mutant ratio (1:3, pH 6.0/7.4)” value is 1.53.

Take B25: the “Affinity ELISA CPE mutant ratio (1:3, pH 6.0/7.4)” value is 20.6.

Regarding B26, the “Affinity ELISA CPE mutant ratio (1:3, pH 6.0/7.4)” value worked out at 1.88.

In the case of B27, the “Affinity ELISA CPE mutant ratio (1:3, pH 6.0/7.4)” value stood at 3.39.

With B28, the “Affinity ELISA CPE mutant ratio (1:3, pH 6.0/7.4)” value worked out at 2.42.

As to B29, the “Affinity ELISA CPE mutant ratio (1:3, pH 6.0/7.4)” value was determined as 2.67.

With B30, the “Affinity ELISA CPE mutant ratio (1:3, pH 6.0/7.4)” value amounted to 3.46.

The next assay has the same target. In words: ELISA, mutant diluted 1:9.
Description: as §1
For the molecule B1, the Affinity ELISA CPE mutant ratio (1:9, pH 6.0/7.4) was 0.932.

As to B2, the Affinity ELISA CPE mutant ratio (1:9, pH 6.0/7.4) was 0.924.

For B3, the Affinity ELISA CPE mutant ratio (1:9, pH 6.0/7.4) came to 0.8.

As for B4, the Affinity ELISA CPE mutant ratio (1:9, pH 6.0/7.4) stood at 1.37.

For the molecule B5, the Affinity ELISA CPE mutant ratio (1:9, pH 6.0/7.4) was 1.2.

Regarding B6, the Affinity ELISA CPE mutant ratio (1:9, pH 6.0/7.4) is 2.15.

As for B7, the “Affinity ELISA CPE mutant ratio (1:9, pH 6.0/7.4)” value is 2.7.

B8: the Affinity ELISA CPE mutant ratio (1:9, pH 6.0/7.4) was 1.06.

Take B9: the “Affinity ELISA CPE mutant ratio (1:9, pH 6.0/7.4)” value is 2.31.

For the molecule B10, the “Affinity ELISA CPE mutant ratio (1:9, pH 6.0/7.4)” value is 2.51.

In the case of B11, the “Affinity ELISA CPE mutant ratio (1:9, pH 6.0/7.4)” value came out at 1.61.

In the case of B12, the “Affinity ELISA CPE mutant ratio (1:9, pH 6.0/7.4)” value came to 2.36.

As to B13, the “Affinity ELISA CPE mutant ratio (1:9, pH 6.0/7.4)” value was found to be 1.7.

Turning to B14, the “Affinity ELISA CPE mutant ratio (1:9, pH 6.0/7.4)” value was determined as 2.8.

In the case of B15, the “Affinity ELISA CPE mutant ratio (1:9, pH 6.0/7.4)” value turned out to be 1.99.

For B16, the “Affinity ELISA CPE mutant ratio (1:9, pH 6.0/7.4)” value came to 2.68.

For the molecule B17, the “Affinity ELISA CPE mutant ratio (1:9, pH 6.0/7.4)” value was 1.18.

For the molecule B18, the “Affinity ELISA CPE mutant ratio (1:9, pH 6.0/7.4)” value is 2.2.

For B19, the “Affinity ELISA CPE mutant ratio (1:9, pH 6.0/7.4)” value stood at 1.12.

Turning to B20, the “Affinity ELISA CPE mutant ratio (1:9, pH 6.0/7.4)” value came out at 1.36.

For the molecule B21, the “Affinity ELISA CPE mutant ratio (1:9, pH 6.0/7.4)” value worked out at 2.64.

In the case of B22, the “Affinity ELISA CPE mutant ratio (1:9, pH 6.0/7.4)” value came out at 4.54.

Turning to B23, the “Affinity ELISA CPE mutant ratio (1:9, pH 6.0/7.4)” value was 1.36.

As for B24, the “Affinity ELISA CPE mutant ratio (1:9, pH 6.0/7.4)” value stood at 1.69.

Take B25: the “Affinity ELISA CPE mutant ratio (1:9, pH 6.0/7.4)” value was determined as 1.09.

Turning to B26, the “Affinity ELISA CPE mutant ratio (1:9, pH 6.0/7.4)” value stood at 2.51.

Regarding B27, the “Affinity ELISA CPE mutant ratio (1:9, pH 6.0/7.4)” value worked out at 2.51.

With B28, the “Affinity ELISA CPE mutant ratio (1:9, pH 6.0/7.4)” value turned out to be 3.09.

For B29, the “Affinity ELISA CPE mutant ratio (1:9, pH 6.0/7.4)” value amounted to 2.85.

For B30, the “Affinity ELISA CPE mutant ratio (1:9, pH 6.0/7.4)” value was found to be 4.02.
